Target: ALG-1(anti) (C. elegans (endogenous in whole animals))
Assay: co-IP; ALG-1 immunoprecipitated with a custom ALG-1-specific polyclonal antibody (Anaspec) from whole protein lysate of wild type or alg-1(anti) animals; precipitate probed by Western blot with anti-ALG-1, anti-DCR-1 and anti-AIN-1; signals quantified as ratios to ALG-1 and normalised to wild type

Substance | fold decrease in co-precipitated AIN-1 against wild type ALG-1 [fold] | fold decrease in co-precipitated AIN-1 against wild type ALG-1 (average of biological replicates) [fold] | fold increase in co-precipitated DCR-1 against wild type ALG-1 [fold]
AIN-1 (GW182) (natural protein) | 3 | 2 | –
DCR-1 (Dicer) (from UniProt P34529 1-1910) (enzyme) | – | – | 4

— PMC3998888
